Reference: the supplement of paper PMC9170038

Key:
MS2 coat protein [1] = assay: apparent KD of MS2 coat protein, switch ON state; designed switch direction (-1 OFF switch, 1 ON switch): -1; higher = weaker reporter binding; conditions: FMN input: 0 or 200 uM; Eterna round: R93 (includes R88 designs)
How it was run: (§1)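 Values are apparent KD, taken as the median for each design of fits to normalised binding curves from individual clusters. The designed RNA switches were transcribed on-chip from Illumina sequencing clusters and exposed to SNAP-549-labelled MS2 coat protein at twofold increasing amounts from 0.7 or 1.5 nM to 3 µM. Titration used 100 mM Tris-HCl pH 7.5, 80 mM KCl and 4 mM MgCl2, without or with constant ligand.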

MS2 coat protein [2] = assay: apparent KD of MS2 coat protein, switch OFF state (with FMN for OFF switches, without FMN for ON switches); designed switch direction (-1 OFF switch, 1 ON switch): -1; higher = weaker reporter binding; conditions: FMN input: 0 or 200 uM; Eterna round: R93 (includes R88 designs)
How it was run: as §1

Sequence	apparent KD of MS2 coat protein (MS2 coat protein [1]) [µM]	apparent KD of MS2 coat protein (MS2 coat protein [2]) [µM]
AAGAAGUCAGGAUAUGGAAAAGAAAAGAAAAGAAAAGAAAACCAGAAGGGACAUGAGGAUCACCCAUGUAAGAA [Xerxes I the Great]	0.0445	0.0281
CUCUAGUGAGGAUAUGCAAGAAAAGAAGAGAAAGAAAAGAAGCAGAAGGCACAUGAGGAUCACCCAUGUAAGAA [EteRNA is fun!]	0.0324	0.0718
AAAAAGUAAGGAUAUACAAAAAUAAAAAAUUAUGAUAAAAAACAUGAGGAUCACCCAUGUAGAAGGUACGAAAA [AJ 3]	0.0275	0.0267
AGCAAACAUGAGGAUCACCCAUGUUAGGAUAUGAACGAAAAUAAAUAAAAAUAAAAGUUCAGAAGGGACGAGCA [66%, Wbt, 28]	0.0281	0.0377
CAAAGGUGAGGAUAUGCAUAACUAUGACGAAAGUCAUAAACACAUGAGGAUCACCCAUGUAGAAGGCACCACAA [e2-2]	0.0372	0.0188
GGAAAACAUGAGGAUCACCCAUGUGAGGAUAUCGAUGUCCAAUAAAAAGUGCGGGACUCGAGAAGGCACUUGGA [salish99-ex1-41]	0.0362	0.0292
AAAAAGUCAGGAUAUGCAUGAGCAAAAAAAAAAAAGCUCAUGCAGAAGGGACAUGAGGAUCACCCAUGUAAAAA [Ex 4 May 10]	0.0702	0.0486
AACAGUACAGGAUAUACAUGAGGAUCACCCAUGUAAAAAAGGGCUGGCGUACCAGAAAGUAGAAGGGUACUGGA [Moding Maslow revisited (73) 9]	0.0306	0.0881
AACAUGUCAGGAUAUAUAAGAAAAGAAAAGAAAGAAAAGAAAUAGAAGGGACAUGAGGAUCACCCAUGUAAGAA [EteRNA is fun!]	0.0452	0.029
AAAAAGGCAGGAUAUGCAUACUCACGGAAAAAAAGGUUGGGACAUGAGGAUCACCCAUGUAGAAGGGCUAAAAA [Dora Explored 15 - Jieux - Exclusion 2]	0.0852	0.0608
AAAAAAUGAGGAUAUACAUGAAAAAAAAAAAAAAAAAAAAAACAUGAGGAUCACCCAUGUAGAAGGCGUAAAAA [Flexi GU!]	0.0398	0.029
GAUAAACAUGAGGAUCACCCAUGUCAGGAUAUGCACUAACUAACUAACUAACUAGCUAGCAGAAGGGACACUAC [Amethyst 86]	0.0249	0.0334
GGAAAACAUGAGGAUCACCCAUGUAAGGAUAUGCAAAAAAAGGAUAUAGAAGGAAAAAGCAGAAGGUACAAAGG [salish99-ex1-24]	0.0306	0.0555
AAAAAGUCAGGAUAUCGGAAAAAAAAAAAAAAAAGGAGAAACGAGAAGGGACAUGAGGAUCACCCAUGUAAAAA [No Frills]	0.117	0.044
AAGAAACAUGAGGAUCACCCAUGUCAGGAUAUUGAAGAAAGAAAGAAAGAAAGAAGAACAAGAAGGGACAAAGG [Gaius Vitrasius Pollio]	0.0443	0.0333
AUAAAGUCAGGAUAUGUAAGAAUAACGAAAGUUAUAAAGAAACAGAAGGGACAUGAGGAUCACCCAUGUAAAAU [Ex 4 #3]	0.0431	0.031
AAGCUGGUAGGAUAUACUAGGGCAACUAAUGAGCCGAUAGGACAUGAGGAUCACCCAUGUAGAAGGGCCAGAAA [Mat - Exclusion 2 - JL mod - D64]	0.0744	0.125
AACAGUACAGGAUAUACAUGAGGAUCACCCAUGUGAAAGAAAAGUGGCGUACCACAAAGUAGAAGGGUACUGAA [Mat - Exclusion 3 - JL mod - D28]	0.0302	0.134

Sequence	apparent KD of MS2 coat protein (MS2 coat protein [1]) [µM]	apparent KD of MS2 coat protein (MS2 coat protein [2]) [µM]
GAAAUGUCAGGAUAUGCGAAGGCGUCUGAUAGACGAGGAUAGCAGAAGGGACAUGAGGAUCACCCAUGUAAAAA [Opal 13]	0.117	0.22
AGGGAGUGAGGAUAUACGAAAAAAAAACAACGAAAAAAAGAGUAGAAGGCACAUGAGGAUCACCCAUGUAAGAA [milkweed 14]	0.0445	0.0253
AAGAGUACAGGAUAUACAUGAGGAUCACCCAUGUGAAAAUUAAGUGGCGUACAACAAAGUAGAAGGGUACUGGA [Ruby 51]	0.022	0.0417
AGUUGGCGAGGAUAUACAUGAGGAUCACCCAUGUGAGAGAAAAAAAAGAGAAAAAAAAGUAGAAGGCGCUGACA [Mat - Exclusion 3 - Lego mod - D42]	0.0426	0.13
AAAAAACAUGAGGAUCACCCAUGUAAGGAUAUGCUGAAAAACACGGAAAAACGUGACAGCAGAAGGUACAAAAA [66%, Wbt, 32]	0.0216	0.0304
AAGAAUGGAGGAUAUACAAAAUAAAAGAAAAGAAAGAAAGAACAUGAGGAUCACCCAUGUAGAAGGCCGAAGAA [Mersekhemre Ined]	0.0146	0.0373
AAAUAGCAAGGAUAUACAUGAGGAUCACCCAUGUAAAAAUGGAAAGUAAUAAAAUAAAGUAGAAGGUGCAAAUA [Ex 3 Tesla 3]	0.0269	0.037
GAAAAGUCAGGAUAUAUGCGAAAAAUAAAAAAAAUAAAAACAUAGAAGGGACAUGAGGAUCACCCAUGUUAAAG [Mat - Exclusion 4 - Mayanna - D135]	0.0377	0.0254
AACAUGUCAGGAUAUGUAAAAAAAAAAAAAAAAAAAAAAAUACAGAAGGGACAUGAGGAUCACCCAUGUCAGGG [EX4 391: Minimal 3]	0.0698	0.0553
AAAAAACAUGAGGAUCACCCAUGUGAGGAUAUCUGUAUUCAAUCCUCGGAUUGAAUACAGAGAAGGCACAUGGA [Ex1: 610]	0.0464	0.0138
AGUCAUACAGGAUAUACAUGAGGAUCACCCAUGUAUAUCCAAAAAAAGUGAUCCUCAUGUAGAAGGGUAUGACA [EX3 203: Super Stable 3]	0.012	0.00892
AAGGGACAUGAGGAUCACCCAUGUUAGGAUAUGCAAACAACAAACAACAAACAACAAAGCAGAAGGGACAAAAA [63%, Olong, 6]	0.0305	0.0288
CUUAUGUGAGGAUAUCAGUAGUAAAAAAAAAAAAUUACUACUGAGAAGGCACAUGAGGAUCACCCAUGUGCCUU [EX4 323: Super Stable 23]	0.0144	0.0142
AAGAAGGUAGGAUAUACUAAAGAAAUGAAAAGAAAUAAAGAACAUGAGGAUCACCCAUGUAGAAGGACCAAGAA [Webenre]	0.0258	0.0322
UGCAUGUAAGGAUAUGCAACCGGCGCACAUUAGCAGGUCAAGCAGAAGGUACAUGAGGAUCACCCAUGUGUCCG [Lalebiis]	0.0269	0.0994
CUCAUGUGAGGAUAUGUACAGAAAAAAAUGGGUGAAACUGUACAGAAGGCACAUGAGGAUCACCCAUGUGAAAA [EX4 378: S S Pseudoknot 3]	0.0261	0.0211
AGAUGACAAGGAUAUACUAGGGAUGCUAGUCGAGAAGAAGAACAUGAGGAUCACCCAUGUAGAAGGUGUAAGAA [JR_Exc002_Sub1703]	0.0354	0.0338
